We go through 8 molecules from patent US20230144436A1 (DYNE THERAPEUTICS, published 2023).

The target in assay [1] is T1, cynomolgus monkey transferrin receptor 1 (cynomolgus monkey (Macaca fascicularis), UniProt Q5RDH6 89-760 (Pongo abelii entry), limits assumed).
T1 construct: also called cyTfR1; Cyno TfR1
T1 chain: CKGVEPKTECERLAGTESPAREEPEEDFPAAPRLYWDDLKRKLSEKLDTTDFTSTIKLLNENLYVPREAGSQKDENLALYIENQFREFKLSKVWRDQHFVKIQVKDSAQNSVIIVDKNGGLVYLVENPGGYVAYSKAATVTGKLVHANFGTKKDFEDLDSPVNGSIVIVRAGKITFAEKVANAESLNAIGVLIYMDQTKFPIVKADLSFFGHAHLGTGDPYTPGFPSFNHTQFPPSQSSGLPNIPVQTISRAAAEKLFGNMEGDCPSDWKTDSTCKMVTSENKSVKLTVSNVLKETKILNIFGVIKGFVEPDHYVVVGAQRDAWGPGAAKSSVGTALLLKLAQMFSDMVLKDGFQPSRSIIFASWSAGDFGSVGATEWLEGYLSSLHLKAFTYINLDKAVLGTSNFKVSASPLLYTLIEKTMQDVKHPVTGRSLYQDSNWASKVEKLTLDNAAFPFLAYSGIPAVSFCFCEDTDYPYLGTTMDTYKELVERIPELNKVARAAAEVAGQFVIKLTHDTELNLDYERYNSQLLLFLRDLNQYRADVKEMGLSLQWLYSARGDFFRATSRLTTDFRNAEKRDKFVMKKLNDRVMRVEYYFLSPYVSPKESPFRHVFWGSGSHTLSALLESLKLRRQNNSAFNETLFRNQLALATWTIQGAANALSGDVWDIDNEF
In words: ELISA on cyno TfR1. The method, then: (§1) The binding activity of selected formats were tested against human TfR1, cyno TfR1, and human TfR2 in an ELISA assay.
(In general: ELISA stands for enzyme-linked immunosorbent assay.)

Assay [2] has as its target T2, human transferrin receptor 1 (human, UniProt P02786 89-760, limits assumed).
T2 construct: also called hTfR1; huTfR1
The assay can be described thus: Carterra LSA SPR array, IgG captured on anti-IgG lawn, hTfR1 as analyte, 25 C, 1:1 Langmuir fit. The method, then: Selected anti-TfR1 antibodies were tested for their binding affinity to human TfR1 for measurement of Ka (association rate constant), Kd (dissociation rate constant), and KD (affinity). […] The binding experiment was performed on Carterra LSA at 25 C. An anti-mouse IgG and anti-human IgG antibody “lawn” was prepared on a HC30M chip by amine coupling. 59 IgGs (58 mouse mAbs and 1 human mAb) were captured on the chip. Dilution series of hTfR1, cyTfR1, and hTfR2 were injected to the chip for binding (starting from 1000 nM, 1:3 dilution, 8 concentrations).
Binding data were referenced by subtracting the responses from a buffer analyte injection and globally fitting to a 1:1 Langmuir binding model for estimate of Ka (association rate constant), Kd (dissociation rate constant), and KD (affinity) using the Carterra™ Kinetics software. 5-6 concentrations were used for curve fitting.
Target sequence in this assay (P02786 89-760 limits assumed): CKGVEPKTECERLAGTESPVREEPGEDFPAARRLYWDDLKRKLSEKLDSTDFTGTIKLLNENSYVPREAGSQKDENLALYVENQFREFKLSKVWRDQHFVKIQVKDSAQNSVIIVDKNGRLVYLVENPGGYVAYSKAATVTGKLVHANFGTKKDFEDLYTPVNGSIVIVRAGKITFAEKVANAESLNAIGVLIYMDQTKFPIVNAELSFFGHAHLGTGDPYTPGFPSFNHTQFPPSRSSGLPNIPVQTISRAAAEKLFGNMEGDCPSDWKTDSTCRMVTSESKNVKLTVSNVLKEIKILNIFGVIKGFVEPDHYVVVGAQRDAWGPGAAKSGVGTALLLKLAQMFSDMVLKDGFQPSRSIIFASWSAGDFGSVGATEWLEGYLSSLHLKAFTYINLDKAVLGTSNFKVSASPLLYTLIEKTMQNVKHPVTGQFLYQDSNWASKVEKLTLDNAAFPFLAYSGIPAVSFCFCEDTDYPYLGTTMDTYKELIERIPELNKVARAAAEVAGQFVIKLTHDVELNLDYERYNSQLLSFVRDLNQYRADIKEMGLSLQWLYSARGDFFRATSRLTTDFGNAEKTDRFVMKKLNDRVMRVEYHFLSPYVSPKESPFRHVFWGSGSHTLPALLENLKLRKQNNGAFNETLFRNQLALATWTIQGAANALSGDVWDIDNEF

Assay [3] deals with T2, human transferrin receptor 1. The assay can be described thus: ELISA on human TfR1. As for the experimental part:
as §1

For assay [4] the target is unchanged. In words: average KD, antibody alone; method not given.
Target sequence in this assay (P02786 89-760 limits assumed): as above
Assay [5] concerns the target T1, cynomolgus monkey transferrin receptor 1. The assay can be described thus: average KD, antibody alone; method not given.
Assay [6] deals with T3, human transferrin receptor 2 (human, UniProt Q9UP52 105-801, limits assumed).
T3 construct: also called human TfR2; hTfR2
T3 sequence (looked up): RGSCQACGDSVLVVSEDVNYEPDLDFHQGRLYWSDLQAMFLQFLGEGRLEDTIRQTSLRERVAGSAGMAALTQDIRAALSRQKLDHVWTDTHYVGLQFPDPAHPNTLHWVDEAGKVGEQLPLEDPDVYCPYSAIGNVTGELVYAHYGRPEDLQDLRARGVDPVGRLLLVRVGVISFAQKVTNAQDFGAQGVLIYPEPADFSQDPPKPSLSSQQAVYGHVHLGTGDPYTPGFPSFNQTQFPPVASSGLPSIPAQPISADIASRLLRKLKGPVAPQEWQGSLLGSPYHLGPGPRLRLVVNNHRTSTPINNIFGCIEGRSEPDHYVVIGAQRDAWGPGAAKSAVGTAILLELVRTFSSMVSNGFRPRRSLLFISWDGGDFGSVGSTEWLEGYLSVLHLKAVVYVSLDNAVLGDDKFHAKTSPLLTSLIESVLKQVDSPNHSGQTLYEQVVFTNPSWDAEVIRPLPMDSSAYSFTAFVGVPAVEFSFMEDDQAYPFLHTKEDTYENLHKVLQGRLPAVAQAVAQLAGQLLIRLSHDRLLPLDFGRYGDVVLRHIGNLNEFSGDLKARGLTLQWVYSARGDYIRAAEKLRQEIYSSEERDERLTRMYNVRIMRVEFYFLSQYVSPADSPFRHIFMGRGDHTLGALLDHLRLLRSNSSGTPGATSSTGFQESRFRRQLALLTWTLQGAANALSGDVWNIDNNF
In words: ELISA.

For assay [7], the target named is T4, human transferrin receptor 1 (human, UniProt P02786 89-760, limits assumed).
T4 construct: also called hTfR1; human TfR1
The assay can be described thus: ELISA.

Assay [8] concerns the target T5, cynomolgus monkey transferrin receptor 1 (cynomolgus monkey, UniProt Q5RDH6 89-760 (Pongo abelii entry), limits assumed).
T5 construct: also called cTfR1; cyTfR1
T5 chain: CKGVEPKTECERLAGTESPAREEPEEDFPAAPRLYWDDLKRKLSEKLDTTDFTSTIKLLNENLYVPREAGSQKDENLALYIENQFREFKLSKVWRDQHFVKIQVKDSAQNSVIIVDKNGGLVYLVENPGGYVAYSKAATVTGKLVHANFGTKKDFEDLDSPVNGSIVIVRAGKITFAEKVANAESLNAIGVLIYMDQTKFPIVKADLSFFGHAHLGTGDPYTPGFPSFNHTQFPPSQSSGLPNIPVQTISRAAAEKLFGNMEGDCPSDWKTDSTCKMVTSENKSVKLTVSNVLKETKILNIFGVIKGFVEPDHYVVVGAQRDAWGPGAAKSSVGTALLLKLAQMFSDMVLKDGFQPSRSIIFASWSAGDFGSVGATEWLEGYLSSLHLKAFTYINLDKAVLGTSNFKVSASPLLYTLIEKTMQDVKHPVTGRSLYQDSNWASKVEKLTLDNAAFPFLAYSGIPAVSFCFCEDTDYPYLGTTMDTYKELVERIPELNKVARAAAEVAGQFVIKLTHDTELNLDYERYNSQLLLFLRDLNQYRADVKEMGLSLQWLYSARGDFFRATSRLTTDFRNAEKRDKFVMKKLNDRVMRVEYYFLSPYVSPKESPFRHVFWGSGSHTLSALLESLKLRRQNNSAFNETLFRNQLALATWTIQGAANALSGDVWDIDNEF
In words: ELISA.

B1: Anti-TfR antibody 15G11 (antibody, V domains shown)
VH: QVQLQQPGAELVKPGASVKLSCKASGYTFTSYWMHWVKQRPGQGLEWIGEINPTNGRTNYIEKFKSKATLTVDKSSSTAYMQLSSLTSEDSAVYYCARGTRAYHYWGQGTSVTVSS
VL: DIQMTQSPASLSVSVGETVTITCRASDNLYSNLAWYQQKQGKSPQLLVYDATNLADGVPSRFSGSGSGTQYSLKINSLQSEDFGTYYCQHFWGTPLTFGAGTKLELK
notes: Known control antibody; It was captured as an IgG on the Carterra chip; also called ctrl-15G11; 15G11 (control)
What is called EC50 is the concentration needed to bring the measured effect to its halfway point. The Kd is the constant that tells how readily two partners part at equilibrium. With B1, the values for the 50% effective concentration (EC50) in assay [1] and in assay [3] were 1.08 nM and 0.589 nM, respectively. Besides, the dissociation constant Kd in assay [2] is 0.283 nM; in assay [4], 0.8 nM; in assay [5] it was 1 nM.

B2: 15G11 (antibody, V domains shown)
VH: QVQLQQPGAELVKPGASVKLSCKASGYTFTSYWMHWVKQRPGQGLEWIGEINPTNGRTNYIEKFKSKATLTVDKSSSTAYMQLSSLTSEDSAVYYCARGTRAYHYWGQGTSVTVSS
VL: DIQMTQSPASLSVSVGETVTITCRASDNLYSNLAWYQQKQGKSPQLLVYDATNLADGVPSRFSGSGSGTQYSLKINSLQSEDFGTYYCQHFWGTPLTFGAGTKLELK
notes: Known anti-TfR1 antibody used as control; also called control antibody 15G11; ctrl-15G11
As for B2, the binding result in assay [6] is reported as “no binding”.

B3: 10-H2 (antibody, V domains shown)
VH: EVQLVESGGDLVKPGGSLKLSCAASGFTFSDYGMHWVRQGPEKGLEWVAYINSGSSTIYYADTVKGRFTISRDNAKNTLFLQMTSLRSEDTAMYYCARPGDYDNYAMDYWGQGTSVTVSS
VL: DIVMTQSHKFLSTSVGDRVSITCKASQDVSVAVAWYQQKPGQSPKLLIYWAYTRHTGVPDRFTGSGSGTEYTLTISSVQAEDLALYYCQQHYNTPPWTFGGGTKLEIK
notes: Tested as a mouse monoclonal IgG; also called 10-H02
As a reminder, the kon is the rate constant with which the complex forms. As to B3, the results for the Kd in assay [2], in assay [4] and in assay [5] were 2.72 nM, 2.72 nM and 12.4 nM, respectively. In addition, in assay [2], the kon came to 126000 M⁻¹ s⁻¹.

B4: anti-TfR antibody shown in Table 7, unconjugated (Example 18) (antibody, V domains shown)
VH: QVQLVQSGAEVKKPGESLKISCKGSGYSFTSYWIGWVRQMPGKGLEWMGIIYPGDSDTRYSPSFQGQVTISADKSISTAYLQWSSLKASDTAMYYCARFPYDSSGYYSFDYWGQGTLVTVSS
VL: not shown
notes: also called anti-TfR alone; unconjugated anti-TfR
For B4, the EC50 is 26.6 nM in assay [7] and 33.6 nM in assay [8].

B5: anti-TfR antibody shown in Table 7 conjugated to a DMPK-targeting oligonucleotide (control DMPK-ASO) (antibody, V domains shown)
VH: QVQLVQSGAEVKKPGESLKISCKGSGYSFTSYWIGWVRQMPGKGLEWMGIIYPGDSDTRYSPSFQGQVTISADKSISTAYLQWSSLKASDTAMYYCARFPYDSSGYYSFDYWGQGTLVTVSS
VL: not shown
notes: Antibody-oligonucleotide conjugate; For the uptake assay the antibody was conjugated to several different DMPK-targeting oligonucleotides and labeled with Cypher5e; also called oligonucleotide-conjugated anti-TfR; anti-TfR Fab conjugates
Consider B5, for which the EC50 was 8.2 nM in assay [7] and 5.3 nM in assay [8].

B6: anti-TfR FAB, Table 7 clone (Fab, V domains shown)
VH: QVQLVQSGAEVKKPGESLKISCKGSGYSFTSYWIGWVRQMPGKGLEWMGIIYPGDSDTRYSPSFQGQVTISADKSISTAYLQWSSLKASDTAMYYCARFPYDSSGYYSFDYWGQGTLVTVSS
VL: not shown
B6: the binding result in assay [6] is on record as “no binding”.

B7: anti-TfR hIgG1 (with L234A/L235A mutations in HC constant region), Table 7 clone (antibody, V domains shown)
VH: QVQLVQSGAEVKKPGESLKISCKGSGYSFTSYWIGWVRQMPGKGLEWMGIIYPGDSDTRYSPSFQGQVTISADKSISTAYLQWSSLKASDTAMYYCARFPYDSSGYYSFDYWGQGTLVTVSS
VL: not shown
notes: Tied by the description 'anti-TfR IgG heavy chain (with human IgG1 constant region mutant L234A/L235A)'
For the molecule B7, the binding result in assay [6] is reported as “no binding”.

B8: 2-H19 (antibody, V domains shown)
VH: EVQLQQSGAELVRSGASVKLSCTASGFNIKDYYMHWVKQRPEQGLEWIGWIDPESGDTEYAPKFQGRATMTADTSSNTAYMQLSSLTSEDTAVYYCYGHDYRVDCWGQGTSVTVSS
VL: DVVMTQTPLSLPVSLGDQASISCRSSQSLVHSNGNTYLHWYLQKPGQSPKLLIYKVSNRFSGVPDRFSGSGSGTDFTLKISRVEAEDLGVYFCSQSTHIPWTFGGGTKLEIK
notes: Tested as a mouse monoclonal IgG
Take B8: the dissociation constant (Kd) in assay [2] stood at 2.06 nM; in assay [4] it was 2.06 nM; in assay [5] it was 5.75 nM. In assay [2], this molecule gave a kon of 222000 M⁻¹ s⁻¹.
